Experimental data as given in patent publication US20160289342A1.

How the values were obtained:
[1] = molecular target: recombinant human soluble BAFF (human) (UniProt Q9Y275); experiment: flow cytometry on JY cells, simultaneous binding assay, 200 ng biotinylated BAFF, BAFF channel FL-2 (PE)
[2] = molecular target: recombinant human soluble BAFF (human) (UniProt Q9Y275); experiment: flow cytometry on JY cells, simultaneous binding assay, 1000 ng biotinylated BAFF, BAFF channel FL-2 (PE)
human CD20 (human) [3] = molecular target: human CD20 (human) (UniProt P11836); experiment: flow cytometry on JY cells, simultaneous binding assay, 1000 ng biotinylated BAFF, CD20 channel FL-1
Chain of human CD20 (human) (P11836 whole entry): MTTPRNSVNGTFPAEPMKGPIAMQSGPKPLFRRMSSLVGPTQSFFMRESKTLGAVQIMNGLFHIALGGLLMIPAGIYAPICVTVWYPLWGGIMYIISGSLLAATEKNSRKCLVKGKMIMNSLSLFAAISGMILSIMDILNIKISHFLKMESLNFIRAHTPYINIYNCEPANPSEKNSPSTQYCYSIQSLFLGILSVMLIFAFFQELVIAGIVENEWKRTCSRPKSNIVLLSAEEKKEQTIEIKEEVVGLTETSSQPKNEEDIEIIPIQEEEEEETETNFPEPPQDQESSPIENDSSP

[4] = molecular target: recombinant human soluble BAFF (human) (UniProt Q9Y275); experiment: flow cytometry on JY cells, simultaneous binding assay, 0.32 ng biotinylated BAFF, BAFF channel FL-2 (PE)
human CD20 (human) [5] = molecular target: human CD20 (human) (UniProt P11836); experiment: flow cytometry on JY cells, simultaneous binding assay, 200 ng biotinylated BAFF, CD20 channel FL-1
[6] = molecular target: recombinant human soluble BAFF (human) (UniProt Q9Y275); experiment: flow cytometry on JY cells, simultaneous binding assay, 5000 ng biotinylated BAFF, BAFF channel FL-2 (PE)
human CD20 (human) [7] = molecular target: human CD20 (human) (UniProt P11836); experiment: flow cytometry on JY cells, simultaneous binding assay, 5000 ng biotinylated BAFF, CD20 channel FL-1
human CD20 (human) [8] = molecular target: human CD20 (human) (UniProt P11836); experiment: flow cytometry on JY cells, simultaneous binding assay, 0.32 ng biotinylated BAFF, CD20 channel FL-1

MFI [1]: 1.43 MFI
MFI [2]: 1.3 MFI
MFI (human CD20 (human) [3]): 9.14 MFI
MFI [4]: 1.31 MFI
MFI (human CD20 (human) [5]): 18 MFI
MFI [6]: 1.26 MFI
MFI (human CD20 (human) [7]): 8.5 MFI
MFI (human CD20 (human) [8]): 9.8 MFI
Substance: control human IgG1 antibody
